Experimental data from patent publication US20230087785A1, “Leucine-Rich Repeat Kinase 2 Allosteric Modulators” (VIB VZW, priority 2020, published 2023).
Values belong to the binder of their own block, whether it stands above or below them.

Legend:
Assay in all cases: ELISA, antigen coated on the plate, purified Nb detected via its EPEA tag
[1] = target: T1, LRRK2 RocCOR domain construct (human, UniProt Q5S007 1334-1840)
T1 construct: A second construct (residues 1293-1840, N-terminal His6-MBP) was used in certain screening experiments; not shown: N-terminal Twin-Strep-tag; C-terminal His10-tag
T1 sequence: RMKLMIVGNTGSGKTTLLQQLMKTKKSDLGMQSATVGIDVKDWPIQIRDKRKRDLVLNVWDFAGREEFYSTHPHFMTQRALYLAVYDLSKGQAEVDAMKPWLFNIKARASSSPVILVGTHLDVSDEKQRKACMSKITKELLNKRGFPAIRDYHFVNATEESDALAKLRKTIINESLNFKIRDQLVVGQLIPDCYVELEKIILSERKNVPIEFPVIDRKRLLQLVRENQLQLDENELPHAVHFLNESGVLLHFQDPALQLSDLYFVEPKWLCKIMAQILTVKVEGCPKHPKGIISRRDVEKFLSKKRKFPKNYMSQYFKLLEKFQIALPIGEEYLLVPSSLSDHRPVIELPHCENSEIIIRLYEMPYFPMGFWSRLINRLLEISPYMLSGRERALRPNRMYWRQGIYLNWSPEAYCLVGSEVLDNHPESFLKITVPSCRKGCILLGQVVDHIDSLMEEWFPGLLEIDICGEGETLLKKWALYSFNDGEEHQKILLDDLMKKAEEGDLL
Description: (§1) We recombinantly expressed and purified the RocCOR, Roc, COR-B and kinase-WD40 (K-WD40) domain constructs of LRRK2 (FIG. 7). Subsequently, we performed an ELISA in which all these domain constructs were coated in parallel next to each other in the same ELISA plate, and where we subsequently detected binding of the 42 purified Nbs. […] To enrich in Nbs directed against the Roc domain we specifically included a selection step with either Roc-GTPγS or Roc-GDP.

[2] = target: T2, LRRK2 Roc domain construct (human, UniProt Q5S007 1329-1520)
T2 construct: not shown: N-terminal His6-tag of pET-28a
T2 sequence: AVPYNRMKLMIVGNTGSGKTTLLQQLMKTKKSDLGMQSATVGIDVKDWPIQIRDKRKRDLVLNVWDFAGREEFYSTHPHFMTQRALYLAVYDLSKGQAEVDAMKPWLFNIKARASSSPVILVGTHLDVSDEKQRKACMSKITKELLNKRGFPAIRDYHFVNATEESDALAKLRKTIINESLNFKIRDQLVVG
Description: as §1

[3] = target: T3, LRRK2 COR-B construct (C-terminal part of the COR domain), His6-MBP tagged (human, UniProt Q5S007 1672-1840)
T3 construct: also called (MBP-)COR-B; not shown: N-terminal His6-MBP-tag of pDEST-566
Description: as §1

B1: Nb41 (CA14136) (VHH)
VHH: QVQLVESGGGLVQAGGSLRLSCEASVRTFSFYSMGWFRQAPGKEREFVAAIRWTAGSTSYADIVKGRFTISRDNGKNTVVLQMNSLEPEDTGVYYCAAQRGYLVEAASREYDYWGQGTQVTVSS
- binding result [1]: no binding (tested: not given)
- binding result [2]: no binding (tested: not given)
- binding result [3]: no binding (tested: not given)

B2: Nb9 (CA13598) (VHH)
VHH: QVQLVESGGGLVQPGGSLRLSCAASGSIFSINAMGWYRQAPGKQRELVAAITSGGRTNYADSVRGRFTISRDHAKNTVYLQMNSLKPEDTAVYYCNAGDWQTMYDYWGQGTQVTVSS
- binding result [1]: no binding (tested: not given)
- binding result [2]: no binding (tested: not given)
- binding result [3]: no binding (tested: not given)

Other lines, results leading:

- binding result [1]: no binding (tested: not given)
- binding result [2]: no binding (tested: not given)
- binding result [3]: no binding (tested: not given)
B3: Nb28 (CA13617) (VHH)
VHH: QVQLVESGGGLVQAGGSLRLSCAASGIIFHWYDMDWYRQAPGKQRELVATITTGGRADYADFVKGRFSISRDNAKTTVYLQMNSLKPEDTAVYYCSFQDHVLRRWGQGTQVTVSS

- binding result [1]: no binding (tested: not given)
- binding result [2]: no binding (tested: not given)
- binding result [3]: no binding (tested: not given)
B4: Nb10 (CA13599) (VHH)
VHH: QVQLVESGGGLVQPGGSLRLSCAASGSIFSIYAMGWYRQAPGKQRELVAAITSGGDTNYADSVKGRFTISRDNAKNTVYLQMNSLKPEDTAVYYCNADHTPAGTFQTFDYWGQGTQVTVSS

- binding result [1]: no binding (tested: not given)
- binding result [2]: no binding (tested: not given)
- binding result [3]: no binding (tested: not given)
B5: Nb13 (CA13602) (VHH)
VHH: QVQLVESGGGLVQPGGSLRLSCAASGSGFSIYAMGWARQAPGRQRELVAAITSGGSTNYADSVKGRFTISRDNAKNTVYLQMNSLKPEDTAVYYCNADITVVAGSTYDYWGQGTQVTVSS
